Data: publication PMC5643395

System: histone octamer WT
Experiment: ensemble FRET (microplate), salt-induced disassembly
Conditions: Reconstitution by dialysis from 2 M to 5 mM NaCl in 10 mM Tris-HCl, 0.1 mM EDTA; FRET over NaCl titration (FRET buffer and temperature not in the material) …

## Widom 601 170 bp
  K half: 800 mM NaCl
